Data published in patent US20190077863A1 (AERPIO PHARMACEUTICALS, published 2019).

Columns and labels:
[1] = target: T1, Human VE-PTP (HPTP-β) containing first eight FN3 repeats with C-terminal His6 tag (Human ½ VE-PTP ECD) (human, UniProt P23467 23-820); experiment: ELISA: HPTP-β antigen coated on the plate, antibody serially diluted (10,000 to 9.765 ng/mL), goat anti-human HRP (Fc specific), OD 450 nm
T1 construct: Produced in HEK293 cells and purified by the His tag; it was not cut off; also called Human Beta ½ ECD
T1 sequence: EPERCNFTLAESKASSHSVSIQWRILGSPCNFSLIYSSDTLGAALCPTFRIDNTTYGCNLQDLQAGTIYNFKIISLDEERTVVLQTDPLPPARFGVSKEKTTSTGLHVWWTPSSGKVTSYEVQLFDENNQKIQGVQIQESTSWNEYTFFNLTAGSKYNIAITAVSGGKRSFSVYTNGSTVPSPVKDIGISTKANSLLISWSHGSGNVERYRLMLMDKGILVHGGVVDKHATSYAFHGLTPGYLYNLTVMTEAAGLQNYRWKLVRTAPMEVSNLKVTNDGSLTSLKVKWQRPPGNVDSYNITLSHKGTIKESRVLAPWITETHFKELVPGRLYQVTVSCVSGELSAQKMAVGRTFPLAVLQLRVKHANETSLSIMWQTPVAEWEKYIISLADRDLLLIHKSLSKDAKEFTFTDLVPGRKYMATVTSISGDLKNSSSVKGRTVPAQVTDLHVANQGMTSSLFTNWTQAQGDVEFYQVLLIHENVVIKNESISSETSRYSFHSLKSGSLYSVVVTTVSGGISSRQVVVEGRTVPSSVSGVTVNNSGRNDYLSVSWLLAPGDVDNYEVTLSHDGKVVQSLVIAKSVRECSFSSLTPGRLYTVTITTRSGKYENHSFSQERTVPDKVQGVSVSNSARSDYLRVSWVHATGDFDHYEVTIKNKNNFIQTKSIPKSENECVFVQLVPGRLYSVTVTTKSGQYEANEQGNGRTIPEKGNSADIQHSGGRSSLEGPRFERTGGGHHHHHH
Experimental: (§1) Each humanized variant was measured for affinity to the antigen, human VE-PTP (HPTP-β), using ELISA. […] of the VE-PTP (HPTP-β) antigen were immobilized onto 96-well Maxisorp plates in coating buffer (0.5 mM NaHCO₃ brought to pH 9.6 by the addition of 0.5 mM Na₂CO₃) overnight at 4° C. The coating buffer was then removed and 200 μL/well of block solution (3% w/v semi-skimmed milk powder, PBS) was added and agitated for 2 hrs at room temperature. The plate was washed four times with PBS-T (1% v/v Tween 20). 100 μL/well was added of purified R15E6 variants serially diluted from 10,000 ng/mL to 9.765 ng/mL in PBS-TB (0.05% v/v Tween 20, 0.5% w/v BSA). Following agitation for 2 hrs at room temperature, the plate was washed 4× with PBS-T. 100 μL/well goat anti-human HRP (Fc specific) at a ratio of 1:60,000 PBS was then added and the plates were incubated for an additional hour with agitation at room temperature. The plate was then washed 6× with PBS-T and once in PBS. Next, 100 μL/well of TMB substrate solution was added and incubated at 37° C. for 10 min. 50 μL 1 M HCl was added per well and the plate immediately read at 450 nm on a Tecan Sunrise plate reader. […] The binding of the HC4 variants was much lower than with the other heavy chains variants compared to HC0LC0 (FIG. 17).

[2] = target: T1, Human VE-PTP (HPTP-β) containing first …; experiment: ELISA: HPTP-β antigen coated on the plate, antibody serially diluted, goat anti-human HRP (Fc specific), OD 450 nm
Experimental: as §1

[3] = target: T1, Human VE-PTP (HPTP-β) containing first …; experiment: ELISA, coated antigen, antibody 10,000 to 9.765 ng/mL
Experimental: as §1

[4] = target: T1, Human VE-PTP (HPTP-β) containing first …; experiment: SPR (Biacore 3000), antibody captured on anti-human IgG, antigen as analyte 25-0 nM
Experimental: (§2) Samples of each variant were further assessed by Biacore analysis to determine the binding affinity. Antibody binding experiments were performed on Biacore 3000™ at 25° C. Assay buffer: 10 mM HEPES buffer (pH 7.4), 150 mM NaCl, 3 mM EDTA, 0.05% P20 (polyoxyethylenesorbitan). […] Conjugation buffer: 10 mM sodium acetate buffer (pH 5). The flow rate used for capturing the ligand was 5 μL/min. The flow rate for the kinetic analysis was 50 μL/min. Flow cell 1 and […] of the CM5 chip were coated with maximum amounts of goat anti-human IgG. Approximately 150 RU of the test antibody was captured on flow cell 2, 3, and 4 as indicated. The antigen was flowed over the chip. Binding of the antigen to the antibodies was monitored in real time. The KD was determined from the observed kₒₙ and koff values.

[5] = target: T1, Human VE-PTP (HPTP-β) containing first …; experiment: SPR (Biacore 3000), antibody captured on anti-human IgG, antigen as analyte 100 nM (single concentration)
Experimental: as §2
A scouting analysis was performed using single analyte concentrations as indicated. At these concentrations, binding can be observed even if the ligand binding is weak. Flow cell 1 response was used for reference subtraction.

B1: humanized R15E6 variant HC1LC1 (antibody, human IgG4 S228P, kappa, V domains shown)
VH: EVQLVESGGGLVQPGGSLKLSCAASGFTFNANAMNWVRQASGKGLEWVGRIRTKSNNYATYYAGSVKDRFTISRDDSKNTAYLQMNSLKTEDTAAYYCVRDYYGSSAWITYWGQGTLVTVSS
VL: DVVMTQSPSFLSASVGDRVTITCKASQHVGTAVAWYQQRPGKAPKLLIYWASTRHTGVPSRFSGSGSGTEFTLTISSLQPEDFATYFCQQYSSYPFTFGGGTKLEIKR
notes: Human IgG4 (S228P) / kappa, expressed in CHO cells; Signal peptides left out by range; also called VH1-VL1
binding result [1]: binds

B2: humanized R15E6 variant HC3LC3 (antibody, human IgG4 S228P, kappa, V domains shown)
VH: EVQLVESGGGLVQPGRSLRLSCTASGFTFNANAMNWVRQAPGKGLEWVGRIRTKSNNYATYYAGSVKDRFTISRDDSKNIAYLQMNSLKTEDTAVYYCVRDYYGSSAWITYWGQGTLVTVSS
VL: DIQMTQSPFSLSASVGDRVTITCKASQHVGTAVAWYQQKPGKAPKLLIYWASTRHTGVPSRFSGSGSGTDFTLTISSLQPEDFATYFCQQYSSYPFTFGGGTKLEIKR
notes: Human IgG4 (S228P) / kappa, expressed in CHO cells; Signal peptides left out by range; also called VH3-VL3
binding result [2]: binds

B3: humanized R15E6 variant HC3LC1 (antibody, human IgG4 S228P, kappa, V domains shown)
VH: EVQLVESGGGLVQPGRSLRLSCTASGFTFNANAMNWVRQAPGKGLEWVGRIRTKSNNYATYYAGSVKDRFTISRDDSKNIAYLQMNSLKTEDTAVYYCVRDYYGSSAWITYWGQGTLVTVSS
VL: DVVMTQSPSFLSASVGDRVTITCKASQHVGTAVAWYQQRPGKAPKLLIYWASTRHTGVPSRFSGSGSGTEFTLTISSLQPEDFATYFCQQYSSYPFTFGGGTKLEIKR
notes: Human IgG4 (S228P) / kappa, expressed in CHO cells; Signal peptides left out by range; also called VH3-VL1
binding result [2]: binds

B4: humanized R15E6 variant HC4LC1 (antibody, human IgG4 S228P, kappa, V domains shown)
VH: LVQLVESGGGLVKPGGSLRLSCAASGFTFNANAMNWIRQAPGKGLEWVSRIRTKSNNYATYYAGSVKDRFTISRDNAKNSLYLQMNSLRAEDTAVHYCVRDYYGSSAWITYWGQGTLVTVSS
VL: DVVMTQSPSFLSASVGDRVTITCKASQHVGTAVAWYQQRPGKAPKLLIYWASTRHTGVPSRFSGSGSGTEFTLTISSLQPEDFATYFCQQYSSYPFTFGGGTKLEIKR
notes: Human IgG4 (S228P) / kappa, expressed in CHO cells; Signal peptides left out by range; also called VH4-VL1
binding result [3]: binds

B5: humanized R15E6 variant HC4LC2 (antibody, human IgG4 S228P, kappa, V domains shown)
VH: LVQLVESGGGLVKPGGSLRLSCAASGFTFNANAMNWIRQAPGKGLEWVSRIRTKSNNYATYYAGSVKDRFTISRDNAKNSLYLQMNSLRAEDTAVHYCVRDYYGSSAWITYWGQGTLVTVSS
VL: DIVMTQSPDSLAVSLGERATINCKASQHVGTAVAWYQQKPGQPPKLLIYWASTRHTGVPDRFSGSGSGTDFTLTISSLQAEDVAVYYCQQYSSYPFTFGQGTKLEIKR
notes: Human IgG4 (S228P) / kappa, expressed in CHO cells; Signal peptides left out by range; also called VH4-VL2
binding result [3]: binds

B6: humanized R15E6 variant HC3LC2 (antibody, human IgG4 S228P, kappa, V domains shown)
VH: EVQLVESGGGLVQPGRSLRLSCTASGFTFNANAMNWVRQAPGKGLEWVGRIRTKSNNYATYYAGSVKDRFTISRDDSKNIAYLQMNSLKTEDTAVYYCVRDYYGSSAWITYWGQGTLVTVSS
VL: DIVMTQSPDSLAVSLGERATINCKASQHVGTAVAWYQQKPGQPPKLLIYWASTRHTGVPDRFSGSGSGTDFTLTISSLQAEDVAVYYCQQYSSYPFTFGQGTKLEIKR
notes: Human IgG4 (S228P) / kappa, expressed in CHO cells; Signal peptides left out by range; also called VH3-VL2
Ka [4]: 4.3e+07 M⁻¹
Kd [4]: 23.2 nM
koff [4]: 0.00123 s⁻¹
kon [4]: 53900 M⁻¹ s⁻¹
Ka [5]: 2.06e+08 M⁻¹
Kd [5]: 4.84 nM
koff [5]: 0.000993 s⁻¹
kon [5]: 205000 M⁻¹ s⁻¹

B7: humanized R15E6 variant HC4LC4 (antibody, human IgG4 S228P, kappa, V domains shown)
VH: LVQLVESGGGLVKPGGSLRLSCAASGFTFNANAMNWIRQAPGKGLEWVSRIRTKSNNYATYYAGSVKDRFTISRDNAKNSLYLQMNSLRAEDTAVHYCVRDYYGSSAWITYWGQGTLVTVSS
VL: DIVMTQSPDSLAVSLGERATINCKASQHVGTAVAWYQQKPEQPPKLLIYWASTRHTGVPDRFSGSGSGTDFTLTISSLQAEDVAVYYCQQYSSYPFTFGGGTKVEIKR
notes: Human IgG4 (S228P) / kappa, expressed in CHO cells; Signal peptides left out by range; also called VH4-VL4
binding result [3]: binds

B8: humanized R15E6 variant HC1LC3 (antibody, human IgG4 S228P, kappa, V domains shown)
VH: EVQLVESGGGLVQPGGSLKLSCAASGFTFNANAMNWVRQASGKGLEWVGRIRTKSNNYATYYAGSVKDRFTISRDDSKNTAYLQMNSLKTEDTAAYYCVRDYYGSSAWITYWGQGTLVTVSS
VL: DIQMTQSPFSLSASVGDRVTITCKASQHVGTAVAWYQQKPGKAPKLLIYWASTRHTGVPSRFSGSGSGTDFTLTISSLQPEDFATYFCQQYSSYPFTFGGGTKLEIKR
notes: Human IgG4 (S228P) / kappa, expressed in CHO cells; Signal peptides left out by range; also called VH1-VL3
binding result [1]: binds
